This sample holds only a part of the variants without activity.
B1: TPR 5TU (parent)
chain: GGAUCUUCUCGAUCUAACAAAAAAGACAAAUCUGCCACAAAGCUUGAGAGCAUCUUCGGAUGCAGAGGCGGCAGCCUUCGGUGGCGCGAUAGCGCCAACGUUCUCAACUAUGACACGCAAAACGCGUGCUCCGUUGAAUGGAGUUUAUCAUG

Variants of: B1
Experiment: polymerase ribozyme fitness, log enrichment relative to wild type (log ratio); higher = more active; in vitro selection for triplet polymerase activity
Summary of the method: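 PCR was used to build mutant libraries for each subunit of a heterodimeric triplet polymerase ribozyme, which were then transcribed. A single in vitro selection round, in triplicate, used a frozen incubation at −7 °C and recovered extended constructs by gel excision, streptavidin beads and RT-PCR. Fitness is the logarithm of genotype enrichment relative to wild-type enrichment, averaged over replicates with inverse-variance weights. The logarithm is base 2, and after Illumina sequencing only genotypes with ≥10 input reads and ≥1 read per output were kept.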

Variant	polymerase ribozyme fitness (log ratio)
A19U C36U G86C C93U G100A G126C	≤ -4.2
A19U G71U G83C U146G	≤ -4.2
A19U A23C A91U	≤ -4.2
A19U G25U A49C U55G U56G C85U A98G A106G C118U G133A U145G	≤ -4.2
A19G G58C G59C	0.18
A19C G80A C85G	-0.89
A19U G83U	-0.798
A19U G83A	-0.555
A19C U55G C96A C108G C116G A119C	≤ -4.2
A19U A73U	-0.608
A19U G68C C93G C131G	≤ -4.2
A19U G80A	-0.164
A19U G50U	-0.0269
A19U G50A	-1.63
A19U C38U G50A C79A	≤ -4.2
A19G G48A C75G C93A	≤ -4.2
A19U C43U A73U C79U A106U A107C	≤ -4.2
A19U A30U U55G G59A G86U A150U	≤ -4.2
A19G C87A C116A G143C U145G G152U	≤ -4.2
A19U C75U U139G G140A U151G	≤ -4.2
A19G C96U C123U	-0.681
A20C A22C A39G G71A C85A G94C	≤ -4.2
A19U A21C C54U U134A	≤ -4.2
A20C A21G G48A C54A A113C A147C	≤ -4.2

Variant	polymerase ribozyme fitness (log ratio)
A19C G92U	0.745
A19C G92A	-2.38
A19U G46A C51U A91G G124U U139A	≤ -4.2
A19G G68U C79G G84A G86A U135C G140U	≤ -4.2
A19U A23U U90G C105A	≤ -4.2
A19U U33A G34A C79A C118U C125A C132U G133A A142C U148G	≤ -4.2
A19C G65A G83C	-1.84
A20C C27U C87U G92A U101A	-1.49
A19G U55A C87A A106G G124C G136C C149A A150C	≤ -4.2
A19G A23U A30C G48U U56C A60U C87U	≤ -4.2
A19U A30U U56A G62C C76U	≤ -4.2
A19U A41C A73U A91C C93U C129G G140U C149U	≤ -4.2
A19U G143U	-2.25
A19G G86A	-1.36
A19U G42U A113G A121U G124C U148A	≤ -4.2
A19C C43U C76A G81C A91G A106U A121C G136U A142G	≤ -4.2
A19G G83C C87U U101G	≤ -4.2
A20C A24G A40C C69A C75G C87U G88C U102C G124A G133C U135C A147C	≤ -4.2
A19U C35G C43A U56A G58U C85U A113G A122C U151A	≤ -4.2
A19G C51U A52C A60U G65A G84U C85A C87U A98C A138G	≤ -4.2
A19U G92C	-1.68
A19G A41C	-1.52
A19G A29G C38A U53A C76U G86U C99U	≤ -4.2
A20C A115U	-2.36

Variant	polymerase ribozyme fitness (log ratio)
A19G G94U C96U C116A C125U G133U	≤ -4.2
A19G C27U	-1.17
A19U A28G G50A G68A G94U	≤ -4.2
A19U U56A A60G C75U C93A C118U U146A	-3.86
A19C G94C U102G	≤ -4.2
A19U A52G G94C	-1.72
A19C G126U U145A	-0.56
A19G G84U	-2.39
A19G G84A	-1.52
A19C C125U	0.16
A19G U78G C87G A98U U101G G126A	≤ -4.2
A19G A40C C85G A147C	-3.28
A20C A52G C79A G133C U146G	≤ -4.2
A19G A40U G62U A121U G141U	-1.46
A19C U61C G141C U144C C149A	≤ -4.2
A19G A122C G136C A142C	-3.74
A19U C57G C96G C116G	-0.687
A19U A91C C129A	≤ -4.2
A19U A26C C38U A89G A98U A107C	≤ -4.2
A20C A41U G68C G83A G100U A115G C116U C123G	≤ -4.2
A20C A41U G59A A60U C69G G86A C103G	≤ -4.2
A19U A60U C93U C114U	-4.17
A19G A91C C116A G141A U145G	≤ -4.2
A19U A60G C72U G143U	≤ -4.2

Variant	polymerase ribozyme fitness (log ratio)
A19G C54G G70A A73G G92A A106G C116G A137G	≤ -4.2
A19C G88A C95A C99U	≤ -4.2
A19C U53G C85U G92A C103A G141C	≤ -4.2
A19G A23U C38U G42U G68A U82A	≤ -4.2
A19G A29G G92A C116G	-3.8
A19U A20C A73G G92U C116A	-0.142
A19U C54A G70A U82A U134G U139A	≤ -4.2
A19G C32A A47C G59C C85U A106C G143C	≤ -4.2
A19G C85U	-1.3
A19G C85G	-2.84
A19C U56A A91U A147C	≤ -4.2
A19G C123G	-1.22
A20C A28U A49C U61A G92A A113G C149G	≤ -4.2
A19G C96U U101G	-0.801
A19U G46A G58C A97U U134A	≤ -4.2
A19U A24U A30U U55A C93G C103G A106C C132G U146C	≤ -4.2
A19U G42C G86U A110G C116A G117U	≤ -4.2
A19U A21U G46C C96A U134A	≤ -4.2
A19C G88C	-3.96
A19U G94C	-0.449
A19U G86U	-1.75
A20C A52C C79G	≤ -4.2
A19G A26U U31C G92A C96G C103U	≤ -4.2
A19U A39G G74U C85G G128C C129U	≤ -4.2

Variant	polymerase ribozyme fitness (log ratio)
A20C C36U A47C	-1.91
A19U C114G	-3.52
A19U A26G A122G	≤ -4.2
A19G G50U U55A C96U U145G	-2.18
A20C C54U G70C C93A	≤ -4.2
A20C A22C C43U G83C	≤ -4.2
A19U C85U	-0.763
A19G G48C G86A C103U C108G	≤ -4.2
A20C A37C A40C G58C C95U	-4.12
A19G G50C C75G C85G C103A U135C	≤ -4.2
A19U U53C C87G	≤ -4.2
A20C A97G	-0.83
A19G A52U U53A U82C C87G	≤ -4.2
A19U G136C	-3.86
A20C A28C A37U G42U G71A C85U C99G A106G C131G	≤ -4.2
A19U A22C C93U U145A	-1.22
A19G C57A G65A	-2.01
A20C A21U U55A G59C C85A G126U	-0.602
A19G U55A G83A A97G G124A A142C	≤ -4.2
A19G G59U C85U C95A	-1.78
A19G A28G C38U A49C G58A G65A C76A C93G	≤ -4.2
A19U C99U G133C U144G	-2.25
A19G A41U C57U G84U U146A A147U U151A	≤ -4.2
A19U G94C U145G	-0.324

Variant	polymerase ribozyme fitness (log ratio)
A20C A120G	-0.986
A19U A22U A47C G80A G86A C87A C95U U104G A120U	≤ -4.2
A20C A47U U101A A122U	-0.358
A19U A26C G46U C93A C95G C108A U151G	≤ -4.2
A19U U55A C63A A142U U148C	≤ -4.2
A19U A30C G42A C43G C54G G70U U77C C96G A107G	≤ -4.2
A20C C36A C51U U55G C69G A73U G81A C96U G141U	≤ -4.2
A19U G58C C87U C95U C116G	-1.52
A19U G34A A47U C76A C116U	≤ -4.2
A19U U53A C85A	-3.78
A20C A39C A40G G84U G88U C93A C96A	≤ -4.2
A19G U31G U44A G80A C123G G141C	≤ -4.2
A19U C96G A142C	-2.72
A19U U144A	-0.138
A20C C54U U78A	≤ -4.2
A19U C57A A60C C93A	≤ -4.2
A19U A21U C72G A89C C96G G143A	≤ -4.2
A20C A41C U55C C93G C99U U102G	≤ -4.2
A20C A28U C93U C129U G143A	≤ -4.2
A19U U55A A60G G94U G143U	-3.55
A19C U53A	-1.57
A19G C69G C76U U82G G88A G141U A150C	≤ -4.2
A19G A89C U134G	-3.68
A19G U55A C85A	-2.52

Variant	polymerase ribozyme fitness (log ratio)
A20C A52G A142G	-2.02
A19U A23G G84A U101G A115C	-3.62
A19U C51U C54A C85G C132G	≤ -4.2
A19U U44A U53A A73U C85U G136A	≤ -4.2
A19U G25A U61A	≤ -4.2
A19C G59A U144C	1.14
A19C G86A	-0.455
A20C A113U U127A	≤ -4.2
A19G C27A C57A G92U A97G G133A U134G	≤ -4.2
A19U C35G C57U U90C C96A C132U	≤ -4.2
A19C C51A G86C	-3.75
A19U A39G C85U U134G	≤ -4.2
A20C A39U G42A A91U G133U	≤ -4.2
A19U C54G C79A U82C G84A A89C G92C U144C	≤ -4.2
A19G A20U C36U C96G	-3.67
A19G A24G C43A G59A	≤ -4.2
A19U C87U	-0.845
A19C U56A U104A A119U	-0.197
A20C C32G G59C C85U C95G A97G G140A U151C	≤ -4.2
A20C A52U G68C G84A U134C	≤ -4.2
A19U G70A U82A U127G	≤ -4.2
A20C A23U A28U G65U A73U G86U	≤ -4.2
A19G A41C G59A G62A A73U C118G A150U	≤ -4.2

Reference: the RNAGym collection of RNA variant scans (doi:10.1073/pnas.2313332121)
